Experimental data reported in US20160168266A1 (SBI BIOTECH, published 2016).
Changes are numbered by the printed parent chain.

T1: human phospholipase D4 (PLD4) protein (human, UniProt Q96BZ4 1-506)
T1 sequence: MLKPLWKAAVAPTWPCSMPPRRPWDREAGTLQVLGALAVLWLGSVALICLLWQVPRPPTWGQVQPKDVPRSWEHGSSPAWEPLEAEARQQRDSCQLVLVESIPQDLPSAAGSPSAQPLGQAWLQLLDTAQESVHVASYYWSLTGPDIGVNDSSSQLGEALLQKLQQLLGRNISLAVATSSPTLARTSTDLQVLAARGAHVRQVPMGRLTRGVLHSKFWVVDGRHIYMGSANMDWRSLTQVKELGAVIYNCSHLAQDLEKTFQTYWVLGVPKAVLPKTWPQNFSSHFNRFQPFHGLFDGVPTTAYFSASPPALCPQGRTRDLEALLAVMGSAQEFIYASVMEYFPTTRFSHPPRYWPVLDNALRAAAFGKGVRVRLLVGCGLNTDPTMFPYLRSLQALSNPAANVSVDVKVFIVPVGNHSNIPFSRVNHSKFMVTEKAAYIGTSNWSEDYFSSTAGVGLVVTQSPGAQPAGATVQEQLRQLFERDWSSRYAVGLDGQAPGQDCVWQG

B1: chimeric 13D4 antibody (antibody, V domains shown)
VH: DVQLQESGPGLVKPSQSLSLTCSVTGYSITSHYYWTWIRQFPGNKLEWMGYISYDGSNNYNPSLKNRISITRDTSKNQFFLKLNSVTTEDTATYNCAREGPLYYGNPYWYFDVWGAGTTVTVSS
VL: DIQMTQTTSSLSASLGDRVTISCRASQDIDNYLNWYQQKPDGTVKLLIYYTSRLHSGVPSRFSGSGSGTDYSLTISNLEQEDVATYFCQQFNTLPRTFGGGTKLEIKR
B2: chimeric 13H11 antibody (antibody, V domains shown)
VH: B1 VH with T30S, T36S, K45R
VL: B1 VL with D17G, R18S, V83I
B3: anti-PLD4 chimeric 11G9.6 antibody (antibody, human IgG1, kappa, V domains shown)
VH: QVQLQQPGAELVKPGTSVKMSCKASGYTFTSYWMHWVKQRPGQGLEWIGDIYPGSDSTNYNEKFKSKATLTVDTSSSTAYMQLSSLTSEDSAVYYCARGGWLDAMDYWGQGTSVTVSS
VL: B1 VL with D30S, V83I, F91G, R96W
B4: chimeric 5B7 antibody (antibody, V domains shown)
VH: EVQLQQSGPELVKPGASVKISCKASGYTFTDYNLHWVKQSHGKSLEWIGYIYPYNGNTGYNQKFKRKATLTVDNSSGTVYMELRSLTSEDSAVYYCARGGIYDDYYDYAIDYWGQGTSVTVSS
VL: DIQMTQSPASLSVSVGETVAITCRASENIYSHIAWYQQKEGKSPQRLVYGATNLAHGVPSRFSGSGSGTQYSLKINSLQSEDFGSYYCQHFWGTPWTFGGGTKLEIKR
B5: chimeric 3B4 antibody (antibody, V domains shown)
VH: EVQLQQSGTVLSRPGASVTMSCKASGDSFTTYWMHWVKQRPGQGLEWIGAIYPGNSETSYNQKFKGKAKLTAVTSASTAYMEFTSLTNEDSAVYYCTGGYSDFDYWGQGTTLTVSS
VL: DILMTQSPSSMSVSLGDTVSITCHASQGIRSNIGWLQQKPGKSFKGLIFHGTNLEDGVPSRFSGRGSGADYSLTINSLESEDFADYYCVQYVQFPPTFGSGTKLEIRR
B6: anti-PLD4 mouse 10C3 antibody (antibody, mouse IgG2a, V domains shown)
VH: EVQLVESGGDLVRPGGSLKLSCAASGFSFSSYGMSWFRQTPDKRLEWVATISSGGSYIYYPESVKGRFTISRDNARNILYLQMSSLKSEDTAMYYCVRLYGGRRGYGLDYWGQGTSVTVSS
VL: EIVMTQAAFSNPVTLGTSASISCRSSKSLLHSDGITYLYWYLQKPGQSPQLLIYQMSNLASGVPDRFSSSGSGTDFTLRISRVEAEDVGVYYCAQNLELYTFGGGTKLEIKR
notes: Mouse IgG2a, kappa monoclonal antibody
B7: anti-PLD4 mouse 11D10 antibody (antibody, mouse IgG2b, V domains shown)
VH: B6 VH
VL: B6 VL
notes: Mouse IgG2b, kappa monoclonal antibody with the same CDRs as 10C3
B8: anti-PLD4 mouse 8C11 antibody (antibody, mouse IgG2b, V domains shown)
VH: QVQLQQSGAELVKPGASVKLSCKASGYTFTSYYLYWVRQRPGQGLEWIGLINPTNSDTIFNEKFKSKATLTVDKSSSTAYMQLSSLTSEDSAVYYCTREGGYGYGPFAYWGQGTLVTVSA
VL: DVVMTQTPLSLPVSLGDQASISCTSSQTLVHSNGNTYLHWYLQKPGQSPKLLIYKVSNRFSGVPDRFSGSGSGTDFTLKISRVEAEDLGVYFCSHSTHVPFTFGSGTKLEIKR
notes: Mouse IgG2b, kappa monoclonal antibody

Biological target: T1, human phospholipase D4 (PLD4) protein
Experiment: cell-based or functional assay

| Binder | PLD4+ activated B cells after culture of PBMC with CpG2006 and the chimeric antibody, with control Ig treatment taken as 100% [%] |
| --- | --- |
| B1 | 56 |
| B2 | 55.3 |
| B3 | 66.4 |
| B4 | 25.8 |
| B5 | 70.2 |

Biological target: T1, human phospholipase D4 (PLD4) protein
Experiment: FACS screening of hybridoma culture supernatant (CAL-1 cells)

| Binder | binding result |
| --- | --- |
| B6 | binds |
| B7 | binds |
| B8 | binds |
